The values that follow come from patent publication US20170254813A1 (VENTANA MEDICAL SYSTEMS, published 2017).

The target of test [1] is T1, CD21 (complement receptor type 2) (UniProt P20023 21-1033, limits assumed).
T1 construct: Endogenous protein in tissue section
T1 sequence (looked up): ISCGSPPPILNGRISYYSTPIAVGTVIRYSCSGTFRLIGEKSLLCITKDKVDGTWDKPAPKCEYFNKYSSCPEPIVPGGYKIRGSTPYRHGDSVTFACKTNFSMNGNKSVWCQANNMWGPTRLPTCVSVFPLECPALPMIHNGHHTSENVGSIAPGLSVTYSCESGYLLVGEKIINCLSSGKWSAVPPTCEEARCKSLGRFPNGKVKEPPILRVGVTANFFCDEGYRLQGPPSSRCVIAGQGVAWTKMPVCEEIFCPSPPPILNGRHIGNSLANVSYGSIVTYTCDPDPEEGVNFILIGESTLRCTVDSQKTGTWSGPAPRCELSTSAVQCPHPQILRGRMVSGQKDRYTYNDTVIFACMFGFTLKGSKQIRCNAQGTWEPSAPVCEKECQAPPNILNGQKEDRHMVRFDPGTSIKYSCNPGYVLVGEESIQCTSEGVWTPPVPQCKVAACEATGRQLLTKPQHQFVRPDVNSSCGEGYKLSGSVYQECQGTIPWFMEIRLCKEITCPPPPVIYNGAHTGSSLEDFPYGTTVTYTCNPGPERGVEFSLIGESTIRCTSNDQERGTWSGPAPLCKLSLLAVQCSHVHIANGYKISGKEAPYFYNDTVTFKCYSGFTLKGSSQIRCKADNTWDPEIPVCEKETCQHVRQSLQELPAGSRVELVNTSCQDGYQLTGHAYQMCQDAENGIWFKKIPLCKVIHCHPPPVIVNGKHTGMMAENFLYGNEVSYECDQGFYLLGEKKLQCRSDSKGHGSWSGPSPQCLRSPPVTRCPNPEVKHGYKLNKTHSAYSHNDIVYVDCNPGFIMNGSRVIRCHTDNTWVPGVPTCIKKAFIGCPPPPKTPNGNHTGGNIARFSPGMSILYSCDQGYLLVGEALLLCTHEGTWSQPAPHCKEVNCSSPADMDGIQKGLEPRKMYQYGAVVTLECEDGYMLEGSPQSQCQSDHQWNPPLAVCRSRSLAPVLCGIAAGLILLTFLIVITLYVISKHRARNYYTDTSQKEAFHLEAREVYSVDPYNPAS
Nature of the test: in situ proximity assay on FFPE normal tonsil sections.
Experimental: (§1) IHC staining was performed on a VENTANA BenchMark XT automated slide-processing system (Ventana). For all IHC staining, FFPE sections were first deparaffinization with EZ Prep solution (Ventana) and washed with reaction buffer. Antigen retrieval was carried out in Cell Conditioning 1 (Ventana) (100° C.; 92 minutes) and again washed with 1× reaction buffer (Ventana). […] After thorough wash with reaction buffer, secondary antibody conjugates of GAR-PEG₈-SS-HA-N₃ and GAM-PEG₄-CCH (100 μL of 10 μg/mL each) were added to slides and incubated at 37° C. for 32 minutes. The slides were washed in reaction buffer and water before a drop of 100 μL of HEPES buffer (0.15 M, pH 7.4) was added to the slides. To initiate the azide-acetylene click reaction, 100 μL of Cu(I) catalyst solution was added onto the slide. One working example of the Cu(I) solution contained 0.6 mM CuSO₄, 3 mM THPTA, 10 mM HEPES (pH=7.4), 40% DMSO (v/v) and 4 mM of sodium ascorbate (freshly made and added to CuSO₄ immediately before adding to slide). The click reaction was allowed to proceed for 32 minutes and the slides were washed thoroughly in reaction buffer. […] For chromogenic based detection using diaminobenzidine (DAB), ready-to-use solutions of DAB, H₂O₂ and Copper from an [sequence] […]

For a further test, the target named is T2, PMS2 (UniProt P54278 1-862).
T2 construct: Endogenous protein of Hela cells in xenograft
T2 sequence (looked up): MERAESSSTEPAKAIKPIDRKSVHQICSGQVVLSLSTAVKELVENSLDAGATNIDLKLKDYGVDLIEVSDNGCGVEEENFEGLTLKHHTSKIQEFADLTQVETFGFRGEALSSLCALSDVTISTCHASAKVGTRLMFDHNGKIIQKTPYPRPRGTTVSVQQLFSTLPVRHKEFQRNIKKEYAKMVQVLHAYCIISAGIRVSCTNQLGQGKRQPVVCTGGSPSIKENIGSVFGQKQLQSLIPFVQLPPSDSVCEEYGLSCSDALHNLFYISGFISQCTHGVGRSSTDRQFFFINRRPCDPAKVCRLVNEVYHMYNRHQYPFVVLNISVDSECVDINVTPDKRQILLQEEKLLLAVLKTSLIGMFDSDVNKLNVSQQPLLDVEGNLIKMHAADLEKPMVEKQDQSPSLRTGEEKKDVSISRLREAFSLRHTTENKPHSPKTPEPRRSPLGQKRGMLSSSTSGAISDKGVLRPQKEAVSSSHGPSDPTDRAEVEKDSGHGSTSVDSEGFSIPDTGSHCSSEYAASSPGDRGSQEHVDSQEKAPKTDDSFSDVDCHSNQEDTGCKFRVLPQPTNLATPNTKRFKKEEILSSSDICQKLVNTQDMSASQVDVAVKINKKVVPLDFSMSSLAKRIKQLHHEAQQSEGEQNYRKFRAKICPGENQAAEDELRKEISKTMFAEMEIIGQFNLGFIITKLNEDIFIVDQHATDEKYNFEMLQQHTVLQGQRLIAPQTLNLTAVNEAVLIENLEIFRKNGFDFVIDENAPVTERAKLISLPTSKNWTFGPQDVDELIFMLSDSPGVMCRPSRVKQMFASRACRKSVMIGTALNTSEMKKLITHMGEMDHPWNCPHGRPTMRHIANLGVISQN
Kind of test: in situ proximity assay on Hela cell xenograft sections.

A further test addresses T3, β-catenin (UniProt P35222 2-781).
T3 construct: Endogenous protein in tissue section; also called beta-catenin
T3 sequence (looked up): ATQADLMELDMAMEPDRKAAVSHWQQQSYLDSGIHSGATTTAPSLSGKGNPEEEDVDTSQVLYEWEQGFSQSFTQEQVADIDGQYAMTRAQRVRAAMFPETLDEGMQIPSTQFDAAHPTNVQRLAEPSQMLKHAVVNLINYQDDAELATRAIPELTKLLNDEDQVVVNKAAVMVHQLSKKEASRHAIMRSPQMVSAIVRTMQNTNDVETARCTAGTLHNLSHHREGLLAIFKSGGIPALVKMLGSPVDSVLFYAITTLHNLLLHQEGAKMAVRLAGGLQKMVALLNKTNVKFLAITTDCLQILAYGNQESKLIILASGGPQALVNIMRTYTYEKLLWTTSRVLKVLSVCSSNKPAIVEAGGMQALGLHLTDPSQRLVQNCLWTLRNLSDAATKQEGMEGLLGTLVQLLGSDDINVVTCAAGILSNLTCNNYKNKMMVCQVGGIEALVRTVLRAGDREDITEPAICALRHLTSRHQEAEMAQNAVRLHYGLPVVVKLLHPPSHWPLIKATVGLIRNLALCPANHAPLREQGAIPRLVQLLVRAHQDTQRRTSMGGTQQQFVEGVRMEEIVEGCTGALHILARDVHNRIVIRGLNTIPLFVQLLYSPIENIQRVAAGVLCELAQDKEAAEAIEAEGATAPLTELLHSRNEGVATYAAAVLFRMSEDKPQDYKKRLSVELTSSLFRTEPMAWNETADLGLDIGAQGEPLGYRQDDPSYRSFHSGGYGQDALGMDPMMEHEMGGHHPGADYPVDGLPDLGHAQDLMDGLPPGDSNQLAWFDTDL
Nature of the test: in situ proximity assay (chemical ligation and hapten transfer) on FFPE tonsil and skin sections.

Experimental for β-catenin: as §1

B1: CD19 (receptor, UniProt P15391 20-556, looked up)
chain: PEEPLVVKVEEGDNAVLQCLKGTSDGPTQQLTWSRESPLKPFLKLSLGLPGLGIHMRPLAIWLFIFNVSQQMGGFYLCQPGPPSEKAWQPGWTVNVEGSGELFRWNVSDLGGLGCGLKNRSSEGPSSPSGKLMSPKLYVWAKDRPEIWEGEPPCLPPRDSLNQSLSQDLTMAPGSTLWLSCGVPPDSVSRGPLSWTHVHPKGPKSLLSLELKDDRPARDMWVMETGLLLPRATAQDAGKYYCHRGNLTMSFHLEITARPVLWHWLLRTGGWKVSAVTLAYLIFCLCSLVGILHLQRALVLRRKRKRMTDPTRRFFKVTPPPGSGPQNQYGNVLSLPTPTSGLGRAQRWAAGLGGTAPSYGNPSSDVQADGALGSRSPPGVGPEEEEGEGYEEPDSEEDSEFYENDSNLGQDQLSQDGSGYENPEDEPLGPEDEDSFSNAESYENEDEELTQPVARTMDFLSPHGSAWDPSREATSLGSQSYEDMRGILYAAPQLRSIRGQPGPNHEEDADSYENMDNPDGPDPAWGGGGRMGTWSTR
notes: Endogenous protein in tissue section
Take B1: the binding result in test [1] is “binds”.

B2: MLH1 (other, UniProt P40692 2-756, looked up)
chain: SFVAGVIRRLDETVVNRIAAGEVIQRPANAIKEMIENCLDAKSTSIQVIVKEGGLKLIQIQDNGTGIRKEDLDIVCERFTTSKLQSFEDLASISTYGFRGEALASISHVAHVTITTKTADGKCAYRASYSDGKLKAPPKPCAGNQGTQITVEDLFYNIATRRKALKNPSEEYGKILEVVGRYSVHNAGISFSVKKQGETVADVRTLPNASTVDNIRSIFGNAVSRELIEIGCEDKTLAFKMNGYISNANYSVKKCIFLLFINHRLVESTSLRKAIETVYAAYLPKNTHPFLYLSLEISPQNVDVNVHPTKHEVHFLHEESILERVQQHIESKLLGSNSSRMYFTQTLLPGLAGPSGEMVKSTTSLTSSSTSGSSDKVYAHQMVRTDSREQKLDAFLQPLSKPLSSQPQAIVTEDKTDISSGRARQQDEEMLELPAPAEVAAKNQSLEGDTTKGTSEMSEKRGPTSSNPRKRHREDSDVEMVEDDSRKEMTAACTPRRRIINLTSVLSLQEEINEQGHEVLREMLHNHSFVGCVNPQWALAQHQTKLYLLNTTKLSEELFYQILIYDFANFGVLRLSEPAPLFDLAMLALDSPESGWTEEDGPKEGLAEYIVEFLKKKAEMLADYFSLEIDEEGNLIGLPLLIDNYVPPLEGLPIFILRLATEVNWDEEKECFESLSKECAMFYSIRKQYISEESTLSGQQSEVPGSIPNSWKWTVEHIVYKALRSHILPPKHFTEDGNILQLANLPDLYKVFERC
notes: Endogenous protein of Hela cells in xenograft
As to B2, the binding result with PMS2 was “binds”.

B3: E-cadherin (other, UniProt P12830 155-882, looked up)
chain: DWVIPPISCPENEKGPFPKNLVQIKSNKDKEGKVFYSITGQGADTPPVGVFIIERETGWLKVTEPLDRERIATYTLFSHAVSSNGNAVEDPMEILITVTDQNDNKPEFTQEVFKGSVMEGALPGTSVMEVTATDADDDVNTYNAAIAYTILSQDPELPDKNMFTINRNTGVISVVTTGLDRESFPTYTLVVQAADLQGEGLSTTATAVITVTDTNDNPPIFNPTTYKGQVPENEANVVITTLKVTDADAPNTPAWEAVYTILNDDGGQFVVTTNPVNNDGILKTAKGLDFEAKQQYILHVAVTNVVPFEVSLTTSTATVTVDVLDVNEAPIFVPPEKRVEVSEDFGVGQEITSYTAQEPDTFMEQKITYRIWRDTANWLEINPDTGAISTRAELDREDFEHVKNSTYTALIIATDNGSPVATGTGTLLLILSDVNDNAPIPEPRTIFFCERNPKPQVINIIDADLPPNTSPFTAELTHGASANWTIQYNDPTQESIILKPKMALEVGDYKINLKLMDNQNKDQVTTLEVSVCDCEGAAGVCRKAQPVEAGLQIPAILGILGGILALLILILLLLLFLRRRAVVKEPLLPPEDDTRDNVYYYDEEGGGEEDQDFDLSQLHRGLDARPEVTRNDVAPTLMSVPRYLPRPANPDEIGNFIDENLKAADTDPTAPPYDSLLVFDYEGSGSEAASLSSLNSSESDKDQDYDYLNEWGNRFKKLADMYGGGEDD
notes: Endogenous protein in tissue section; also called E-cadherein
Regarding B3, the binding result with β-catenin is given as “binds”.
